The target of experiment [1] is PP2Ac C-terminal peptide L309, ac-…-OH (unmodified) (human). Nature of the experiment: ELISA, peptide coated at 2 µg/ml, antibody 1 µg/ml.
In experiment [2] the target is PP2Ac C-terminal peptide meL309, ac-…-CH3 (α-carboxymethylated) (human). Nature of the experiment: ELISA, peptide coated at 2 µg/ml, antibody 1 µg/ml, values normalized to L309, N=6.
For experiment [3], the target named is PP2Ac C-terminal peptide pT304-L309, ac-HVTRRpTPDYFL-OH (human). The experiment is described as above.
Experiment [4] concerns the target PP2Ac C-terminal peptide pT304-meL309, ac-HVTRRpTPDYFL-CH3 (human). The description is as above.
Experiment [5] deals with PP2Ac C-terminal peptide pY307-meL309, ac-HVTRRTPDpYFL-CH3 (human). The experiment is described as above.
The target in experiment [6] is PP2Ac C-terminal peptide meL309, ac-…-CH3 (α-carboxymethylated) (human). Nature of the experiment: ELISA, peptide coated at 2 µg/ml, antibody 1 µg/ml, normalized, N=4.
Experiment [7] deals with PP2Ac C-terminal peptide pT304-meL309, ac-HVTRRpTPDYFL-CH3 (human). The experiment is described as above.
For experiment [8], the target named is PP2Ac C-terminal peptide meL309, ac-…-CH3 (α-carboxymethylated) (human). Nature of the experiment: ELISA, peptide coated at 2 µg/ml, antibody 1 µg/ml, normalized, N=3.
The target of experiment [9] is PP2Ac C-terminal peptide pY307-meL309, ac-HVTRRTPDpYFL-CH3 (human). Described as above.
Experiment [10] has the same target. Nature of the experiment: ELISA, 4-fold dilution series of coated peptide, normalized, N=3.
Experiment [11] has as its target PP2Ac peptides L309, Y307F, pY307, meL309 crosslinked to BSA (Homo sapiens, UniProt P67775). Nature of the experiment: Western blot of BSA crosslinked PP2Ac peptides (scFv 7C10-C5). Format: binding. Particulars: 100 ng BSA crosslinked peptides. The procedure: 100 ng of BSA crosslinked with peptides (L309: CGEPHVTRRTPDYFL (SEQ ID NO:49), Y307F: CGEPHVTRRTPDFFL (SEQ ID NO.50), pY307: CGEPHVTRRTPDpYFL (SEQ ID NO:51) or meL309: CGEPHVTRRTPDYFL-CH3) (SEQ ID NO:49) was separated by 10% SDS-PAGE and transferred to nitrocellulose membrane (0.2 μm, GE Healthcare). Of note, the Y307F peptide cannot be phosphorylated at position 307 due to the presence of a phenylalanine. The membranes were blocked in 3% non-fatty dry milk (NFDM) in TBS-Tween for 1 h at RT and incubated with single clone hybridoma cell culture supernatant, clone 7C10-C5 diluted 1:100 in 0.5% NFDM in TBS-T (7C10 X63), recombinant single chain variable fragment of antibody 7C10-C5, undiluted (7C10 scFvs), recombinant bivalent single chain variable fragment 7C10-C5, undiluted (7C10 bi-scFvs) or single clone hybridoma cell culture supernatant, clone 1D7 (binding to non-carboxymethylated PP2Ac) 1:100 in 0.5% NFDM in TBS-T o/n at 4° C. After washing 3×5 min in TBS-T, blots incubated with recombinant antibodies were incubated with mouse anti-HA monoclonal antibody 16B12 (recognizing the hemagglutinin (HA) tag on the recombinant antibody), 1:10000 in 0.5% NFDM in TBS-T 2 h at room temperature. After washing 3×5 min in TBS-T, incubation with anti-mouse-HRP coupled secondary antibody for 1 h at RT and 3×10 min washes in TBS-T was performed. […] Signals were detected by exposure of X-ray films. […]

The target in experiment [12] is T1, C-terminal PP2Ac peptides L309, Y307F, pY307, meL309 (Homo sapiens, UniProt P67775).
T1 construct: coated with C-terminal PP2Ac peptides either free or linked to BSA; BSA (carrier)
Nature of the experiment: ELISA with CGEPHVTRRTPDYFL peptides free or linked to BSA (scFv and recombinant 7C10-C5). The format is binding. Particulars: for recognition of meL309 versus non-carboxymethylated peptides: peptides free or linked to BSA. The procedure: Nunc Medisorp 96-well ELISA flat-bottom plates were coated with C-terminal PP2Ac peptides either free or linked to BSA. Specifically, the peptides were: unmodified L309 (CGEPHVTRRTPDYFL) (SEQ ID NO:49), Y307F (CGEPHVTRRTPDFFL) (SEQ ID NO:50), pY307 (CGEPHVTRRTPDpYFL) (SEQ ID NO:51) or carboxymethylated meL309 (CGEPHVTRRTPDYFL-CH3) (SEQ ID NO:49), on the ELISA plate at 8 μg/ml in TBS (free) or 1 μg/ml in TBS (linked to BSA) at 4° C. overnight. After washing twice with TBS, the wells were incubated with 2% BSA in TBS for 1 h at RT. After washing once with TBS, the wells were incubated with single clone hybridoma cell culture supernatant, clone 7C10-C5 1:50 (7C10 X63), recombinant single chain variable fragment of antibody 7C10-C5, undiluted (7C10 scFvs), or recombinant bivalent single chain variable fragment of antibody 7C10-C5, undiluted (7C10 bi-scFvs). After washing 3× with TBS, wells incubated with recombinant antibodies were incubated with monoclonal antibody 16B12, 1:10000 (recognizing the hemagglutinin tag on the recombinant antibody) in 1% BSA TBS 1 h at room temperature. After washing 3× in TBS, incubation with anti-mouse-HRP coupled secondary antibody for 1 h at RT was performed. Bound antibodies were detected by colorimetric reaction with 3,3′,5,5′-Tetramethylbenzidine as substrate, and absorbance was measured at 450 nm. Values were normalized to meL309 which was arbitrarily set to 1. Average and standard deviation of N=3 experiments are shown.
Nunc Medisorp 96-well ELISA flat-bottom plates were coated with peptides either free or linked to BSA, L309 (CGEPHVTRRTPDYFL) (SEQ ID NO:49) or meL309 (CGEPHVTRRTPDYFL-CH3) (SEQ ID NO:49), on the ELISA plate at 0.5 μg/ml in TBS (free) or […] in TBS (linked to BSA) at 4° C. over night. After washing twice with TBS, the wells were incubated with 2% BSA in TBS for 1 h at RT. After washing once with TBS, the wells were incubated with single clone hybridoma cell culture supernatant, clone 7C10-C5 1:50 (7C10 X63), or recombinant antibody 7C10-C5 undiluted (rec 7C10). After washing 3× with TBS, incubation with anti-mouse-HRP coupled secondary antibody for 1 h at RT was performed. Bound antibodies were detected by colorimetric reaction with 3,3′,5,5′-Tetramethylbenzidine as substrate, and absorbance was measured at 450 nm. Values were normalized to meL309 incubated with 7C10 X63, which was arbitrarily set to 1. Average and standard deviation of N=3 experiments are shown (FIG. 30).

“mouse monoclonal antibody 4B7 (SCBT, sc-13601, lot 0716)” returned a fold higher ELISA signal intensity than with the α-carboxymethylated counterpart (meL309) in experiment [1] of 8 fold. This molecule came in with a fold-change of ELISA signal, L309 over meL309 in [2] of 8.27 fold. This molecule also displayed a fold-change of ELISA signal, L309 over pT304-L309 in experiment [3] of 1.75 fold. This molecule gave a fold-change of ELISA signal, pT304-L309 over pT304-meL309 in [4] of 7.39 fold. The molecule also returned a fold-change of ELISA signal, pY307-L309 over pY307-meL309 in experiment [5] of 8.27 fold.

“rabbit monoclonal antibody E155 (Abcam #ab32104 lot GR17965-24)” came in with a fold higher ELISA signal intensity than with the α-carboxymethylated counterpart (meL309) in experiment [1] of 4.7 to 8.2 fold. In experiment [6], the fold-change of ELISA signal, L309 over meL309 is 4.65 fold. Also, in [7], the fold-change of ELISA signal, L309 over pT304-meL309 came to 50 fold; the fold-change of ELISA signal, meL309 over pT304-meL309 was determined as 10.7 fold; the fold-change of ELISA signal, pT304-L309 over pT304-meL309 is 36.1 fold. The fold-change of ELISA signal, L309 over meL309 in experiment [8] amounted to 8.2 fold. In addition, in experiment [9], the fold-change of ELISA signal, pY307-L309 over pY307-meL309 worked out at 2.5 fold and the fold-change of ELISA signal, pY307-meL309 over meL309 was determined as 3.36 fold. In addition, the EC50 (read off the curve) in [10] came out at 0.3 µg/mL.

B1: monovalent scFv 7C10-C5: recombinant monovalent single chain variable fragment of antibody 7C10-C5 (SEQ ID NO:42) (protein)
scFv: MDMRVPAQLLGLLLLWLSGARCDVLMTQTPLSLPVSLGDQASISCRSSQSIVHSNGNTYLEWYLQKPGQSPKLLIYKVSNRFSGVPDRFSGSGSGTDFTLKINRVEAEDLGVYYCFQGSHVPWTFGGGTKLEIKSSGGGGSGGGGGGSSRSSLDVQLQESGPGLVKPSQSLSLTCSVTGYSITSGYYWNWIRQFPGNKLEWMGYISYDGSNNYNPSLKNRISITRDTSKNQFFLKLNSVTTEDTATYYCAGRFAYWGQGTLVTVSAAKTTPPSVTSGQAGQHHHHHHGAYPYDVPDYAS
modifications: recombinant monovalent scFv antibody
For the molecule B1, the “recognition of meL309 versus non-carboxymethylated peptides” value in experiment [11] is recorded as “specifically recognized the carboxymethylated meL309 peptide, but none of the non-carboxymethylated peptides”; in experiment [12], “specifically recognized the carboxymethylated meL309 peptide, but none of the non-carboxymethylated peptides”.

B2: bivalent scFv 7C10-C5: recombinant bivalent single chain variable fragment of antibody 7C10-C5 (SEQ ID NO:44) (protein)
scFv: MDMRVPAQLLGLLLLWLSGARCDVLMTQTPLSLPVSLGDQASISCRSSQSIVHSNGNTYLEWYLQKPGQSPKLLIYKVSNRFSGVPDRFSGSGSGTDFTLKINRVEAEDLGVYYCFQGSHVPWTFGGGTKLEIKSSGGGGSGGGGGGSSRSSLDVQLQESGPGLVKPSQSLSLTCSVTGYSITSGYYWNWIRQFPGNKLEWMGYISYDGSNNYNPSLKNRISITRDTSKNQFFLKLNSVTTEDTATYYCAGRFAYWGQGTLVTVSAAKTTPPSVGSGSGSGSGSGSGSGSGSGSGSGSGSGSGSDVLMTQTPLSLPVSLGDQASISCRSSQSIVHSNGNTYLEWYLQKPGQSPKLLIYKVSNRFSGVPDRFSGSGSGTDFTLKINRVEAEDLGVYYCFQGSHVPWTFGGGTKLEIKSSGGGGSGGGGGGSSRSSLDVQLQESGPGLVKPSQSLSLTCSVTGYSITSGYYWNWIRQFPGNKLEWMGYISYDGSNNYNPSLKNRISITRDTSKNQFFLKLNSVTTEDTATYYCAGRFAYWGQGTLVTVSAAKTTPPSVTSGQAGQHHHHHHGAYPYDVPDYAS
modifications: recombinant bivalent scFv antibody
With B2, the “recognition of meL309 versus non-carboxymethylated peptides” value in [11] was “specifically recognized the carboxymethylated meL309 peptide, but none of the non-carboxymethylated peptides”; in experiment [12] it was “specifically recognized the carboxymethylated meL309 peptide, but none of the non-carboxymethylated peptides”. Further, in [12], the “binding to meL309 peptide, bivalent versus monovalent scFv” value is “bound stronger to the meL309 peptide than the monovalent scFv”.

For the origin of these results see patent US20230121197A1, “ANTIBODIES SPECIFICALLY BINDING THE CARBOXYMETHYLATED CATALYTIC SUBUNIT OF PROTEIN PHOSPHATASE 2A” (Medizinische Universität Wien, priority 2020, published 2023).
